Test results from the Immune Epitope Database (IEDB).

Target: HLA-B*07:02
Test: IEDB peptide-MHC binding, purified MHC/competitive/fluorescence; filed as Kd, often an IC50 or EC50 that approximates it; ≥ and ≤ were set here for values at or beyond the usual limits of such assays
Conditions: source organism: Coxiella burnetii

Row | Sequence | Kd
1 | KPLQVINRKY | ≥ 1000 µM
2 | LPQKPWWKF | ≥ 1000 µM
3 | LPRNRYRLVF | ≥ 5 µM
4 | LPRRHNFYNY | ≥ 1000 µM
5 | SPHPRVNQF | ≥ 5 µM
6 | TPDFPQLFF | ≥ 50 µM
7 | TPTFVIGNKA | ≥ 1000 µM

Target: HLA-B*44:02
Test: as above
Conditions: source organism: Coxiella burnetii

Row | Sequence | Kd
8 | EEFVKTQSY | ≥ 5 µM
9 | FEALHLLYAL | ≥ 1000 µM
10 | GEEATAFLRY | ≥ 50 µM
11 | IERVFYYFPL | ≥ 1000 µM
12 | IEVVKKYMDY | ≥ 1000 µM
13 | KDIQSIVHHY | ≥ 1000 µM
14 | METPPQSPDF | ≥ 1000 µM
15 | MEVRDLLNSY | ≥ 5 µM
16 | NEIETATRY | ≥ 5 µM
17 | REMYSRRRMY | ≥ 5 µM

Target: HLA-A*24:02
Test: as above
Conditions: source organism: Coxiella burnetii

Row | Sequence | Kd
18 | GYHSITPYLF | ≥ 5 µM
19 | IYDDRLLFEF | ≥ 5 µM
20 | LYDDEFKFL | ≥ 5 µM
21 | NFSDYIWHF | ≥ 5 µM
22 | QYLQYLWPL | ≥ 5 µM
23 | SFVPKFFLTF | ≥ 5 µM
24 | TYRHNKKLL | ≥ 50 µM
25 | TYRVLNYKDL | ≥ 50 µM
26 | WYVVNNNYL | ≥ 5 µM

Target: HLA-A*03:01
Test: as above
Conditions: source organism: Coxiella burnetii

Row | Sequence | Kd
27 | ASFQNYLNDY | ≥ 1000 µM
28 | ATSNLIYKLK | ≥ 5 µM
29 | GVDRFITYK | ≥ 5 µM
30 | ISYDRFTVGK | ≥ 5 µM
31 | KLILFVYRY | ≥ 50 µM
32 | KTFVYPMGLY | ≥ 5 µM
33 | LLSTLCLYRK | ≥ 50 µM
34 | LSATFITSK | ≥ 5 µM
35 | SLFANMNGHY | ≥ 50 µM
36 | VLDCNYLSK | ≥ 5 µM

Target: HLA-A*02:01
Test: as above
Conditions: source organism: Coxiella burnetii

Row | Sequence | Kd
37 | FLFFYSGLIL | ≥ 5 µM
38 | FLIAVFARHL | ≥ 5 µM
39 | IMIDRLIEQL | ≥ 5 µM
40 | LLWHGVSTL | ≥ 5 µM
41 | MLWLPLLLIL | ≥ 5 µM
42 | NMFQHLPYL | ≥ 5 µM
43 | RMYISFFPL | ≥ 5 µM
44 | VIDDLIVYRV | ≥ 50 µM
45 | YLLDRCPFL | ≥ 5 µM
46 | YLVNHPEVL | ≥ 50 µM

Target: HLA-A*01:01
Test: as above
Conditions: source organism: Coxiella burnetii

Row | Sequence | Kd
47 | ETYNSINKY | ≥ 1000 µM
48 | FFEDFTHRY | ≥ 1000 µM
49 | HTYYLIGFLY | ≥ 50 µM
50 | KTEQDKLSY | ≥ 50 µM
51 | LTLLLNWVNY | ≥ 50 µM
52 | MVEEKYNYFY | ≥ 5 µM
53 | QSGWTIHHY | ≥ 1000 µM
54 | SLESGFTYY | ≥ 5 µM
55 | VSDATVAKWY | ≥ 50 µM
56 | VTLVEFFDY | ≥ 1000 µM
